The text below walks through data of publication PMC11199699.

Holding throughout (experiment): purified protein
Substrate in data set [1]: NC(=O)c1ccc[n+]([C@@H]2O[C@H](COP(=O)(O)OP(=O)(O)OC[C@H]3O[C@@H](n4cnc5c(N)ncnc54)[C@H](O)[C@@H]3O)[C@@H](O)[C@H]2O)c1
In kind it is biochemical, Herbaspirillum huttiense. Conditions: 10 mM substrate, 50 mM Tris-HCl pH 8.0, 30 °C, varied: cofactor.

Substrate in data set [2]: C[C@@H](O)CC(=O)O
In kind it is biochemical, Herbaspirillum huttiense. The settings on record: 1.5 mM NAD+, 50 mM Tris-HCl pH 8.0, 30 °C.

Substrate in data set [3]: O=C(O)[C@H]1C[C@@H](O)CN1
In kind it is biochemical, Herbaspirillum huttiense. Conditions: 1.5 mM NAD+, 50 mM Tris-HCl pH 8.0, 30 °C, substrate range 1-10 mM (Km extrapolated).

Substrate in data set [4]: O=C(O)C(=O)C[C@@H](O)CO
In kind it is biochemical, Herbaspirillum huttiense. Conditions: 1.5 mM NAD+, 50 mM Tris-HCl pH 8.0, 30 °C.

Substrate in data set [5]: O=C(O)C(=O)C[C@H](O)[C@H](O)CO
Format: biochemical, Herbaspirillum huttiense. Conditions: 1.5 mM NAD+, 50 mM Tris-HCl pH 8.0, 30 °C.

Substrate in data set [6]: O=C(O)[C@@H]1C[C@H](O)CN1
Format: biochemical, Herbaspirillum huttiense. The settings on record: 1.5 mM NAD+, 50 mM Tris-HCl pH 8.0, 30 °C.

Substrate in data set [7]: O=C(O)C(=O)C[C@H](O)[C@@H](O)CO
In kind it is biochemical, Herbaspirillum huttiense. Conditions: 1.5 mM NAD+, 50 mM Tris-HCl pH 8.0, 30 °C.

Substrate in data set [8]: O=C(O)C(=O)C[C@H](O)CO
Format: biochemical, Herbaspirillum huttiense. Conditions: 1.5 mM NAD+, 50 mM Tris-HCl pH 8.0, 30 °C.

Substrate in data set [9]: C[C@H](O)[C@@H](O)CC(=O)C(=O)O
Format: biochemical, Herbaspirillum huttiense. Conditions: 1.5 mM NAD+, 50 mM Tris-HCl pH 8.0, 30 °C.

Substrate in data set [10]: NC(=O)c1ccc[n+]([C@@H]2O[C@H](COP(=O)(O)OP(=O)(O)OC[C@H]3O[C@@H](n4cnc5c(N)ncnc54)[C@H](OP(=O)(O)O)[C@@H]3O)[C@@H](O)[C@H]2O)c1
In kind it is biochemical, Herbaspirillum huttiense. The settings on record: 10 mM substrate, 50 mM Tris-HCl pH 8.0, 30 °C, varied: cofactor.

Substrate in data set [11]: O=C(O)[C@@H]1C[C@@H](O)CN1
Format: biochemical, Herbaspirillum huttiense. Conditions: 1.5 mM NAD+, 50 mM Tris-HCl pH 8.0, 30 °C.

Substrate in data set [12]: C[C@@H](O)CC(=O)O
In kind it is biochemical, Homo sapiens. The settings on record: 1.5 mM NAD+, 50 mM Tris-HCl pH 8.0, 30 °C, substrate range 1-10 mM (Km extrapolated).

Substrate in data set [13]: O=C(O)[C@@H]1C[C@H](O)CN1
Format: biochemical, Homo sapiens. The settings on record: 1.5 mM NAD+, 50 mM Tris-HCl pH 8.0, 30 °C.

Substrate in data set [14]: C[C@H](O)[C@@H](O)CC(=O)C(=O)O
Format: biochemical, Homo sapiens. Conditions: 1.5 mM NAD+, 50 mM Tris-HCl pH 8.0, 30 °C.

The Km is the concentration of substrate that gives half-maximal velocity. Usually kcat stands for the number of substrate molecules converted per active site and unit of time at saturation. As a reminder, the kcat/Km is the second-order rate constant that governs catalysis at low substrate concentration.

Residue numbers refer to the chain shown, from its start. In names and notes the source's numbering stands.

B1: L-KDFDH (FucF; C785_RS13675) (Herbaspirillum huttiense subsp. putei IAM 15032) (protein)
chain: MSASTGRLAGKTVLITAAAQGIGRASTELFAREGARVIATDISKTHLEELASIAGVETHLLDVTDDDAIKALVAKVGTVDVLFNCAGYVAAGNILECDDKAWDFSFNLNAKAMFHTIRAVLPGMLAKKAGSIVNIASAASSVKGVANRFAYGASKAAVVGLTKSVAADFVSQGIRCNAICPGTIESPSLNQRISTQAKETGKSEDEVRAAFVARQPMGRIGKAEEVAALALYLASDESNFTTGSIHMIDGGWSN
notes: pQE-80L, N-terminal (His)6-tag, expressed in E. coli, Ni-NTA; homotetramer; EC 1.1.1.434
Regarding B1, the Km was 30.2 ± 3 µM in the data set “purified protein [1]”; 1790 ± 570 µM in “purified protein [2]”; 37800 ± 11500 µM in “purified protein [3]”; 5510 ± 660 µM in the data set “purified protein [4]”; 6600 ± 550 µM in the data set “purified protein [5]”; 4190 ± 350 µM in “purified protein [6]”. In addition, the Km amounted to 808 ± 73 µM in the data set “purified protein [7]”; 2580 ± 240 µM in “purified protein [8]”; 115 ± 15 µM in “purified protein [9]”; 1770 ± 300 µM in the data set “purified protein [10]”; 2260 ± 270 µM in the data set “purified protein [11]”. Further, the kcat in “purified protein [1]” amounted to 29.2 ± 1.3 s⁻¹; in the data set “purified protein [2]”, 0.00137 ± 0.000167 s⁻¹; in “purified protein [4]”, 3.37 ± 0.183 s⁻¹; in “purified protein [5]” it was 8.25 ± 0.35 s⁻¹; in “purified protein [6]”, 0.742 ± 0.0233 s⁻¹; in the data set “purified protein [7]”, 19.8 ± 1.2 s⁻¹. Also, the kcat in the data set “purified protein [8]” worked out at 27.5 ± 2.03 s⁻¹; in the data set “purified protein [9]”, 15 ± 0.317 s⁻¹; in the data set “purified protein [10]”, 0.0678 ± 0.01 s⁻¹; in “purified protein [11]” it was 0.00165 ± 0.000105 s⁻¹. Besides, the specificity constant (kcat/Km) worked out at 972000 ± 58700 M⁻¹ s⁻¹ in “purified protein [1]”; 0.795 ± 0.137 M⁻¹ s⁻¹ in “purified protein [2]”; 615 ± 36.7 M⁻¹ s⁻¹ in the data set “purified protein [4]”; 1250 ± 55 M⁻¹ s⁻¹ in “purified protein [5]”; 178 ± 10 M⁻¹ s⁻¹ in “purified protein [6]”; 24700 ± 750 M⁻¹ s⁻¹ in the data set “purified protein [7]”. Also, the catalytic efficiency (kcat/Km) in the data set “purified protein [8]” stood at 10700 ± 267 M⁻¹ s⁻¹; in the data set “purified protein [9]”, 132000 ± 14000 M⁻¹ s⁻¹; in the data set “purified protein [10]” it was 38.5 ± 1 M⁻¹ s⁻¹; in “purified protein [11]”, 0.737 ± 0.045 M⁻¹ s⁻¹.

B2: L-KDFDH (FucF; C785_RS13675) (Herbaspirillum huttiense subsp. putei IAM 15032; D41S/I42R) (protein)
chain: B1 chain with D41S, I42R
notes: as for B1
For B2, in the data set “purified protein [10]”, the Km stood at 200 ± 4 µM, the kcat came out at 3.6 ± 0.0667 s⁻¹ and the kcat/Km was 18050 ± 83.3 M⁻¹ s⁻¹.

B3: L-KDFDH (FucF; C785_RS13675) (Herbaspirillum huttiense subsp. putei IAM 15032; W252M) (protein)
chain: B1 chain with W252M
notes: as for B1
For B3, in “purified protein [9]”, the Michaelis-Menten constant (Km) came to 219 ± 6 µM, the kcat was determined as 6.62 ± 0.167 s⁻¹ and the kcat/Km is 30000 ± 83.3 M⁻¹ s⁻¹.

B4: BDH2 (Homo sapiens) (protein)
chain: MGRLDGKVIILTAAAQGIGQAAALAFAREGAKVIATDINESKLQELEKYPGIQTRVLDVTKKKQIDQFANEVERLDVLFNVAGFVHHGTVLDCEEKDWDFSMNLNVRSMYLMIKAFLPKMLAQKSGNIINMSSVASSVKGVVNRCVYSTTKAAVIGLTKSVAADFIQQGIRCNCVCPGTVDTPSLQERIQARGNPEEARNDFLKRQKTGRFATAEEIAMLCVYLASDESAYVTGNPVIIDGGWSL
notes: recombinant (His)6-tagged, expressed in E. coli, purified
Take B4: in the data set “purified protein [12]”, the Michaelis-Menten constant (Km) was 18500 ± 2900 µM, the turnover number (kcat) is 0.0698 ± 0.00483 s⁻¹ and the kcat/Km was 3.8 ± 0.333 M⁻¹ s⁻¹. Moreover, in “purified protein [13]”, the Michaelis constant (Km) came out at 220 ± 61 µM, the kcat is 4.88 ± 0.5 s⁻¹ and the kcat/Km was determined as 22800 ± 3670 M⁻¹ s⁻¹. In “purified protein [14]”, the Michaelis constant (Km) stood at 32.2 ± 3.3 µM, the catalytic constant (kcat) turned out to be 3.67 ± 0.183 s⁻¹ and the specificity constant (kcat/Km) was 114000 ± 5830 M⁻¹ s⁻¹.
